Test results: US20150353923, “Method for Identifying RNA Segments Bound by RNA-Binding Proteins or Ribonucleoprotein Complexes” (Rockefeller University, published 2015)

Experiments:
Conditions in all cases: tags: N-terminal His6 (pDEST17, E. coli); label: 32P
QKI (Quaking) [1] = target: T1, QKI (Quaking) (UniProt Q96PU8-9 Q96PU8-9:1-319); experiment: EMSA; binding unaffected by 4SU; 330 mM KCl, 10 mM MgCl2, tRNA
T1 sequence: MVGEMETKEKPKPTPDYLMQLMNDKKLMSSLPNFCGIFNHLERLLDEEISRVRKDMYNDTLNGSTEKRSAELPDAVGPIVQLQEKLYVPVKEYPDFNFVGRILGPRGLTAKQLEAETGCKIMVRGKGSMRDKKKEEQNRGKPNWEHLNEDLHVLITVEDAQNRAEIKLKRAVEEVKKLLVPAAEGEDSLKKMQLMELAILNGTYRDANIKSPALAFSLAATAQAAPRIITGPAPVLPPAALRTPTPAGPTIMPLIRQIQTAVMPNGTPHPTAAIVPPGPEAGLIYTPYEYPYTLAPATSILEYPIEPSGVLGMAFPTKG
Description: (§1) Radiolabeled RNA (1 nM) was incubated with recombinant His6-QKI protein at various concentrations and 100 ng tRNA in 20 μl of 20 mM HEPES-KOH, pH 7.4, 330 mM KCl, 10 mM MgCl2, 0.1 mM EDTA and 0.01% IGEPAL CA630 (Sigma). After addition of 6 μl loading dye (40% glycerol, bromophenol blue in binding buffer), the solution was loaded onto a native 10% acrylamide gel containing 0.5×TBE, running at 200 V for 2 h at room temperature, using 0.5×TBE as running buffer. The protein-bound RNA and the free RNA were quantified using a phosphorimager.

QKI (Quaking) [2] = target: T1, QKI (Quaking); experiment: EMSA; 330 mM KCl, 10 mM MgCl2, pH 7.4, 100 ng tRNA
Description: as §1

QKI (Quaking) [3] = target: T1, QKI (Quaking); experiment: EMSA; 4SU position has no significant effect on affinity; 330 mM KCl, 10 mM MgCl2, tRNA
Description: as §1

Binder | binding result (QKI (Quaking) [3]) | other results
GUAUGCCAUUAACAAAUUCAUUAACAA (ssRNA, 4-thiouridine at position 10 (position 3 of recognition element)) [QKI oligo 4SU at U10] | – | binding result (QKI (Quaking) [1]): binds
GUAUGCCAUUAACAAAUUCAUUAACAA (ssRNA) [HOXD13 3'UTR QKI-site oligoribonucleotide] | – | binding result (QKI (Quaking) [2]): binds
GUAUGCCAUUAACAAAUUCAUUAACAA (ssRNA, 4-thiouridine at position 4) [QKI oligo 4SU at U4] | binds | –
GUAUGCCAUUAACAAAUUCAUUAACAA (ssRNA, 4-thiouridine at position 2) [QKI oligo 4SU at U2] | binds | –
